According to patent US10464978B2, “Peptides and combination of peptides for use in immunotherapy against ovarian cancer and other cancers” (immatics biotechnologies GmbH, priority 2015, dated 2019):

Target: HLA-A*02:01 (Homo sapiens, UniProt P04439, D140Y/D185E/D98H/E176V/E277Q/G131W/G231S/I119V/I121R/I166T/I218V/L300P/L318F/N151K/N90K/P208A/P217A/Q86G/Q94H/R138H/R169H/T345S)
Experiment: MHC binding assay: UV-ligand exchange with beta2m ELISA (peptide exchange yield)
Conditions: binding to HLA-A*02:01
In short: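 Peptide-MHC complexes formed by UV-ligand exchange, a UV-cleavable peptide being replaced by the candidate peptide. Exchange products diluted 100-fold, captured on streptavidin-coated plates for 1h at 37° C, then detected with 2 ug/ml HRP anti-β2m (1h, 37° C) and TMB, absorbance 450 nm; value is exchange yield.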

| Peptide exchange (MHC class I binding score, peptide exchange yield) | Substance |
| --- | --- |
| “++” (≥20% = ++) | 566 (VIADGGIQNV; listed as Homo sapiens) [compound 566] |
| “+++” (≥50 = +++) | 555 (YVLEGLKSV; listed as Homo sapiens) [compound 555] |
| “+++” (≥50 = +++) | 468 (YLRSVGDGETV; listed as Homo sapiens) [compound 468] |
| “+++” (≥50 = +++) | 477 (ALLPASGQIAL; listed as Homo sapiens) [compound 477] |
| “++” (≥20% = ++) | 440 (ALADGVTMQV; listed as Homo sapiens) [compound 440] |
| “+++” (≥50 = +++) | 342 (HIYDKVMTV; listed as Homo sapiens) [compound 342] |
| “+++” (≥50 = +++) | 530 (VMYADIGGMDI; listed as Homo sapiens) [compound 530] |
| “++++” (≥75% = ++++) | 395 (ALALGGIAVV; listed as Homo sapiens) [compound 395] |
| “++++” (≥75% = ++++) | 553 (SLLNQDLHWSL; listed as Homo sapiens) [compound 553] |
| “+++” (≥50 = +++) | 332 (YLISELEAA; listed as Homo sapiens) [compound 332] |
| “++” (≥20% = ++) | 603 (FLIEPEHVNTV; listed as Homo sapiens) [compound 603] |
| “++” (≥20% = ++) | 412 (YLDDLNEGVYI; listed as Homo sapiens) [compound 412] |
| “+++” (≥50 = +++) | 495 (FIFSEKPVFV; listed as Homo sapiens) [compound 495] |
| “+++” (≥50 = +++) | 386 (ILFRYPLTI; listed as Homo sapiens) [compound 386] |
| “+++” (≥50 = +++) | 448 (NLLETKLQL; listed as Homo sapiens) [compound 448] |
| “+++” (≥50 = +++) | 564 (TVTNAVVTV; listed as Homo sapiens) [compound 564] |
| “+++” (≥50 = +++) | 512 (SLSEIVPCL; listed as Homo sapiens) [compound 512] |
| “+++” (≥50 = +++) | 545 (LLADLLHNV; listed as Homo sapiens) [compound 545] |
| “++” (≥20% = ++) | 319 (SLEPQIQPV; listed as Homo sapiens) [compound 319] |
| “+++” (≥50 = +++) | 322 (TLMTSLPAL; listed as Homo sapiens) [compound 322] |
| “++” (≥20% = ++) | 434 (KVSNSGITRV; listed as Homo sapiens) [compound 434] |
| “+++” (≥50 = +++) | 508 (ILAQEQLVVGV; listed as Homo sapiens) [compound 508] |
| “+++” (≥50 = +++) | 529 (LLADELITV; listed as Homo sapiens) [compound 529] |
| “+++” (≥50 = +++) | 475 (LLLNEEALAQI; listed as Homo sapiens) [compound 475] |
| “++++” (≥75% = ++++) | 348 (ILLDVKTRL; listed as Homo sapiens) [compound 348] |
| “+++” (≥50 = +++) | 346 (LLDSKVPSV; listed as Homo sapiens) [compound 346] |
| “++” (≥20% = ++) | 453 (KLLEATSAV; listed as Homo sapiens) [compound 453] |
| “+++” (≥50 = +++) | 446 (QLIPALAKV; listed as Homo sapiens) [compound 446] |
| “+++” (≥50 = +++) | 362 (TLYGLSVLL; listed as Homo sapiens) [compound 362] |

The remaining lines, values behind:

| Substance | Peptide exchange (MHC class I binding score, peptide exchange yield) |
| --- | --- |
| 161 (ALLEGVNTV; listed as Homo sapiens) [compound 161] | “+++” (≥50 = +++) |
| 227 (ALMNTLLYL; listed as Homo sapiens) [compound 227] | “++” (≥20% = ++) |
| 276 (ALFTFSPLTV; listed as Homo sapiens) [compound 276] | “+++” (≥50 = +++) |
| 44 (ILDPISSGFLL; listed as Homo sapiens) [compound 44] | “++” (≥20% = ++) |
| 305 (SIANFSEFYV; listed as Homo sapiens) [compound 305] | “++++” (≥75% = ++++) |
| 94 (YLIDIKTIAI; listed as Homo sapiens) [compound 94] | “++” (≥20% = ++) |
| 104 (STMEQNFLL; listed as Homo sapiens) [compound 104] | “++++” (≥75% = ++++) |
| 131 (FVPPVTVFPSL; listed as Homo sapiens) [compound 131] | “++” (≥20% = ++) |
| 281 (ILRESTEEL; listed as Homo sapiens) [compound 281] | “+++” (≥50 = +++) |
| 152 (ILFEDIFDV; listed as Homo sapiens) [compound 152] | “+++” (≥50 = +++) |
| 122 (FLLAEDDIYL; listed as Homo sapiens) [compound 122] | “+++” (≥50 = +++) |
| 263 (LLVSNLDFGV; listed as Homo sapiens) [compound 263] | “+++” (≥50 = +++) |
| 313 (VLFDDELLMV; listed as Homo sapiens) [compound 313] | “+++” (≥50 = +++) |
| 245 (SMIDDLLGV; listed as Homo sapiens) [compound 245] | “+++” (≥50 = +++) |
| 73 (NIFDLQIYV; listed as Homo sapiens) [compound 73] | “+++” (≥50 = +++) |
| 110 (FLSQVDFEL; listed as Homo sapiens) [compound 110] | “+++” (≥50 = +++) |
| 242 (AIAYILQGV; listed as Homo sapiens) [compound 242] | “++” (≥20% = ++) |
| 99 (ALVSKGLATV; listed as Homo sapiens) [compound 99] | “++” (≥20% = ++) |
| 74 (ALLDPEVLSIFV; listed as Homo sapiens) [compound 74] | “+++” (≥50 = +++) |

| Substance | Peptide exchange (MHC class I binding score, peptide exchange yield) |
| --- | --- |
| 221 (ALYEEGLLL; listed as Homo sapiens) [compound 221] | “++” (≥20% = ++) |
| 215 (QLINHLHAV; listed as Homo sapiens) [compound 215] | “+++” (≥50 = +++) |
| 88 (FLLVGDLMAV; listed as Homo sapiens) [compound 88] | “+++” (≥50 = +++) |
| 134 (YLQELIFSV; listed as Homo sapiens) [compound 134] | “+++” (≥50 = +++) |
| 148 (ALNPEIVSV; listed as Homo sapiens) [compound 148] | “++” (≥20% = ++) |
| 212 (ALWDQDNLSV; listed as Homo sapiens) [compound 212] | “++” (≥20% = ++) |
| 278 (QLLDVVLTI; listed as Homo sapiens) [compound 278] | “++” (≥20% = ++) |
| 206 (VLQEGKLQKLAQL; listed as Homo sapiens) [compound 206] | “+++” (≥50 = +++) |
| 295 (VLDRESPNV; listed as Homo sapiens) [compound 295] | “+++” (≥50 = +++) |
| 123 (NLWDLTDASVV; listed as Homo sapiens) [compound 123] | “+++” (≥50 = +++) |
| 32 (KLDDLTQDLTV; listed as Homo sapiens) [compound 32] | “++” (≥20% = ++) |
| 130 (FLWNGEDSALL; listed as Homo sapiens) [compound 130] | “+++” (≥50 = +++) |
| 83 (ILAPTVMMI; listed as Homo sapiens) [compound 83] | “+++” (≥50 = +++) |
| 75 (GLLEVMVNL; listed as Homo sapiens) [compound 75] | “+++” (≥50 = +++) |
| 17 (GLLPGDRLVSV; listed as Homo sapiens) [compound 17] | “+++” (≥50 = +++) |
| 191 (LLQEGQALEYV; listed as Homo sapiens) [compound 191] | “++” (≥20% = ++) |
| 176 (YLMEGSYNKVFL; listed as Homo sapiens) [compound 176] | “++” (≥20% = ++) |
| 80 (FLYDNLVESL; listed as Homo sapiens) [compound 80] | “++” (≥20% = ++) |
| 264 (SLQEQLHSV; listed as Homo sapiens) [compound 264] | “+++” (≥50 = +++) |
